Assay results taken from US5885961A, “Methods of using epithelins to modulate cell proliferation” (Bristol-Myers Squibb Company, priority 1995, dated 1999).
“Also recorded” adds a separate entry of the source. Read-outs that look alike come from different tables or passages of the source.

Assays:
[1] = test system: A431 human epidermoid carcinoma cells; assay: Cell growth inhibitory activity (GIA), 125I-deoxyuridine incorporation into DNA; format: cell-based; details: for potency relative to epithelin 2 in inhibiting A431 cells: epithelin 1 vs epithelin 2
Procedure: The cell growth inhibitory activity (GIA) assays were performed in flat-bottom 96 well plates (Falcon 3072). Human epidermoid carcinoma of vulva cells (A431) were used as test cells for GIA. 3.5×10^3 cells in 50 μl of test medium (DMEM supplemented with 5% heat inactivated fetal bovine serum (FBS), penicillin/streptomycin (PS) and glutamine) were placed in all wells except peripheral wells. The peripheral wells received 50 μl PBS. Three hours later, 50 μl of test sample in test medium was added to each well, while control wells received only 50 μl of test medium. Three wells were used for each concentration of test sample. Plates were incubated at 37° C. for 2-3 days. Then, 100 μl of a solution of […] (^125 I-IUdR, 4Ci/mg-0.5 mCi/ml, 2 μl/ml in test medium) was added to each well and plates were incubated at 37° C. After 4-6 hours, the medium was aspirated from the wells, which were then washed once with 200 μl PBS. Then, 200 μl methanol was added to each well, plates were incubated for 10 minutes at room temperature, and the methanol was removed by aspiration. 200 μl of 1M sodium hydroxide was added to each well, the plates were incubated for 30 minutes at 37° C. Sodium hydroxide was removed with titertek plugs (Flow Labs). The plugs were transferred into 12×75 mm plastic tubes and counted in a gamma counter to quantify ^125 I-IUdR incorporation.

[2] = test system: Balb/MK cells; assay: Murine keratinocyte growth assay (cell count); format: cell-based; details: FIG. 16A
Procedure: FIG. 16(A-B). (FIG. 16A) Effect of epithelin 1 and epidermal growth factor (EGF) on the growth of Balb/MK cells. Assays were performed as described in Section 6.2., infra. .circle-solid., epithelin 1; o, EGF (FIG. 16B) Effect of various concentrations of epithelin 2 on the epithelin 1 (20 ng/ml) induced growth of murine keratinocytes.
Balb/MK cells were plated at 1×10^4 cells per well in 1 ml of low calcium medium (Weissman and Aaronson, 1983, Cell 32:599-606; Carpenter and Zendegut, 1985, Anal. Biochem. 153:279-282) in 24-well Costar plates and incubated at 37° C. for 4-6 hours. Then media were removed and replaced with 1 ml of medium containing various concentrations of the test compound in triplicate. The control wells received only medium without any test material. The plates were incubated at 37° C. for 4 days, then medium was removed, wells were rinsed two times with 1 ml of phosphate-buffered saline, and the cells were detached with trypsin-EDTA and counted.

[3] = biological target: EGF receptors (Homo sapiens, UniProt P00533); assay: Binding of 125I-EGF to its receptors
[4] = test system: NRK cells; assay: Mitogenic activity on NRK cells in monolayer; format: cell-based, rat
[5] = test system: human fibroblasts and several other human tumor cells; assay: 125I-deoxyuridine incorporation into DNA, human fibroblasts and other human tumor cells; format: cell-based; details: maximum dose tested: 20 ng/ml epithelin 1, 270 ng/ml epithelin 2
[6] = test system: mink lung CCL 64 cells; assay: 125I-deoxyuridine incorporation into DNA, CCL 64; format: cell-based
[7] = test system: NRK-SA6 cells; assay: Soft agar colony assay in the presence of TGFβ; format: cell-based, rat; details: in the presence of TGFβ 1 ng/ml, FIG. 17
Procedure: FIG. 17. Effect of epithelin 1 and 2 on NRK-SA6 cell colony formation in soft agar in the presence of TFGβ (1 ng/ml). The colony formation assay used is described in Section 6.2.3, infra. Solid bars, epithelin 1; stippled bar, epidermal growth factor; open bar, epithelin 2; hatched bar, 20 ng/ml epithelin 1 plus 500 ng/ml epithelin 2.
A 0.38 ml base layer of 0.5% agar (Agar Noble; Difco Laboratories, Detroit, Mich.) in DMEM containing 10% heat inactivated FBS was added to 24 well Costar tissue culture plates. 0.38 ml of 0.3% agar containing the same medium-FBS mixture, 6-12×10^3 test cells, and the test proteins at various concentrations were overlaid on the basal layer of agar. The plates were incubated at 37° C. in a humidified atmosphere of 5% CO2 in air. Colonies were enumerated unfixed and unstained, and the number of colonies was scored between days 7 and 10. Colonies were defined as a cluster of at least eight cells.

[8] = Resistance of bioactivity to chemical, heat and enzyme treatment; format: physicochemical
Procedure: Epithelin 1 and epithelin 2 are resistant to treatment with 1M acetic acid, 1M ammonium hydroxide, 6M urea, 0.01M sodium metaperiodate, to heating at 56° C. for 30 minutes, and to treatment with various glycosidases or lipases. However, epithelin activity was sensitive to reduction, to reduction and 4-vinylpyridine treatment, and to digestion with proteinases such as trypsin, endoproteinase Lys-C, and endoproteinase Glu-C (V8).

[9] = test system: Balb/MK cells; assay: Growth stimulatory activity (GSA), 125I-deoxyuridine incorporation into DNA of murine keratinocytes; format: cell-based; details: FIG. 15A
Procedure: FIG. 15(A-B). (FIG. 15A) Effect of epithelin 1 and epithelin 2 on the stimulation of ^125 I-deoxyuridine incorporation into DNA of the murine keratinocyte cell line Balb/MK. 2,000-4,000 cells were plated per well in 96 well plates in low-calcium medium containing 5% dialyzed FBS. Then GSA assays were performed as described in Section 6.2., infra. .circle-solid., epithelin 1; o, epithelin 2. (FIG. 15B) Effect of various concentrations of epithelin 2 on epithelin 1 (20 ng/ml) elicited incorporation of ^125 I-deoxyuridine into DNA of Balb/MK cells.
Balb/MK cells were also used as indicator cells in 96 well plates to assess the growth inhibitory activity (GIA) or growth stimulatory activity (GSA) of a test material using ^125 I-deoxyuridine incorporation into DNA as described in the previous section.

[10] = test system: monkey kidney COS1 cells; assay: 125I-deoxyuridine incorporation into DNA, COS1; format: cell-based
[11] = test system: human colon carcinoma cell line HCT 116; assay: 125I-deoxyuridine incorporation into DNA, HCT 116; format: cell-based; details: maximum dose tested: 20 ng/ml epithelin 1, 270 ng/ml epithelin 2

B1: epithelin 1: single chain polypeptide of 56 amino acid residues, 12 cysteines, purified from rat kidney; also expressed recombinantly in COS cells (protein)
chain: LPGYPVNEVKCDLEVSCPDGYTCCRLNTGAWGCCPFTKAVCCEDHIHCCPAGFQCHTETGTCEL
[1]
  effect on A431 cells: inhibitory effect
  potency relative to epithelin 2 in inhibiting A431 cells: ~36 times
[1]; A431 cells, purified protein, FIG. 14
  50% inhibition of DNA synthesis (125I-deoxyuridine incorporation): 12.8 ng/well
[1]; A431 cells, read-out: concentration for 50% inhibition of 125I-deoxyuridine incorporation
  IC50: ~21 nM
[1]; listed as Epithelin 1
  potency relative to epithelin 2 in inhibiting A431 cells: about 36 times
[1]; final purification step Anal. Tsk-250, pool 1b
  Specific Activity: 20,609 Units/mg
[1]; final purification step Anal. Tsk-250, pool 2b
  Specific Activity: 21,048 Units/mg
[1]; one unit = amount inhibiting 125I-deoxyuridine incorporation into A431 cells by 50%
  specific activity of purified protein (GIA): about 2.1×10^4 units/mg protein
[1]; purified proteins
  calculated specific activity relative to epithelin 2: ten
[1]; recombinant, supernatant of cβrEPN1 transfection partially purified on TSK-250, A431 cells
  growth inhibitory activity secreted by transfected COS cells: approximately 25 GIA units/100 mm plate
[2]
  effect on growth of Balb/MK cells (rodent keratinocytes): did not proliferate in the absence of EGF or epithelin 1
[3]
  effect on binding of 125I-EGF to its receptors: Neither epithelin 1 nor epithelin 2 significantly affected the binding
[4]
  mitogenic activity on NRK cells in monolayer: exhibited mitogenic activity
[5]
  effect on human fibroblasts and several other human tumor cells: Neither protein exhibited any significant effect
[6]
  effect on 125I-deoxyuridine incorporation into DNA: significantly inhibited
[7]
  anchorage-independent growth (colony formation in soft agar) of NRK cells: induced the anchorage-independent growth of NRK cells in a dose-dependent manner; also recorded: can induce anchorage-independent growth
[8]
  resistance to 1M acetic acid, 1M ammonium hydroxide, 6M urea, 0.01M sodium metaperiodate, heating at 56° C. for 30 minutes, glycosidases or lipases: stable
  sensitivity of activity to reduction, reduction and 4-vinylpyridine treatment, and proteinases (trypsin, Lys-C, Glu-C): sensitive
[8]; listed as Epithelin 1
  resistance to 1M acetic acid, 1M ammonium hydroxide, 6M urea, 0.01M sodium metaperiodate, heating at 56° C. for 30 minutes, glycosidases or lipases: resistant
[9]
  effect on 125I-deoxyuridine incorporation into DNA of Balb/MK cells: stimulated the ^125 I-deoxyuridine incorporation in a dose-dependent manner
[10]
  effect on 125I-deoxyuridine incorporation into DNA: significantly inhibited
[11]
  effect on growth of HCT 116 cells: slighly inhibited

B2: epithelin precursor: unprocessed 589-residue rat preprotein (SEQ ID NO:2) with 7 cysteine-rich motifs, expressed in COS cells (protein)
chain: MWILVSWLALVARLVAGTQCPDGQFCPVACCLDQGGANYSCCNPLLDTWPIITSRRLDGSCQIRDHCPDGYSCLLTVSGTSSCCPFSEGVSCDDGQHCCPRGFHCSADGKSCSQISDSLLGAVQCPGSQFECPDSATCCIMIDGSWGCCPMPQASCCEDRVHCCPHGASCDLVHTRCISPTGTHPLLKKFPAQRTNRAVAFPFSVVCPDAKTQCPDDSTCCELPTGKYGCCPMPNAICCSDHLHCCPQDTVCDLIQSKCISKDYTTDLMTKLPGYPVNEVKCDLEVSCPDGYTCCRLNTGAWGCCPFTKAVCCEDHIHCCPAGFQCHTETGTCELGVLQVPWMKKVTASLSLPDPQILKNDVPCDDFSSCPSNNTCCRLSSGDWGCCPIPEAVCCLDHQHCCPQGFKCMDEGYCQKGDRMVAGLEKMPVRQTTLLQHGDIGCDQHTSCPVGQTCCPSLKGSWACCQLPHAVCCEDRQHCCPAGYTCNVKARTCEKDAGSVQPSMDLTFGSKVGNVECGAGHFCHDNQSCCKDSQGGWACCPYVKGVCCRDGRHCCPIGFHCSAKGTKCLRKKTPRWDILLRDPAPRPLL
[1]
  effect on A431 cells: no activity
[2]
  effect on growth of Balb/MK cells (rodent keratinocytes): no activity
[7]
  anchorage-independent growth (colony formation in soft agar) of NRK cells: no activity
